Experimental data taken from doi:10.1101/2024.02.14.580117.
Like-named read-outs stand apart in the source and are kept apart here.

B1: miR-34a guide / NOTCH1 target (dsRNA)
RNA 1: UGGCAGUGUCUUAGCUGGUUGU
RNA 2: ACUUUUAUUUUACACAGAAACACUGCCU
modifications: 5' phosphate on guide
B2: miR-34a guide / DLL1 target (dsRNA)
RNA 1: UGGCAGUGUCUUAGCUGGUUGU
RNA 2: CCGGCCGCCUGCGGCACUGCCU
modifications: 5' phosphate on guide
B3: miR-34a guide / HNF4a target (dsRNA)
RNA 1: UGGCAGUGUCUUAGCUGGUUGU
RNA 2: AGGGCCACAUCCCACUGCCA
modifications: 5' phosphate on guide
B4: miR-34a guide / PERFECT target (dsRNA)
RNA 1: UGGCAGUGUCUUAGCUGGUUGU
RNA 2: ACAACCAGCUAAGACACUGCCA
modifications: 5' phosphate on guide
B5: miR-34a guide / SCRseed target (dsRNA)
RNA 1: UGGCAGUGUCUUAGCUGGUUGU
RNA 2: ACAACCAGCUAUCACACACGGA
modifications: 5' phosphate on guide
B6: miR-34a guide / PNUTS target (dsRNA)
RNA 1: UGGCAGUGUCUUAGCUGGUUGU
RNA 2: AAAGUCACACUACAUGCACUGCCU
modifications: 5' phosphate on guide
B7: miR-34a guide / MTA2 target (dsRNA)
RNA 1: UGGCAGUGUCUUAGCUGGUUGU
RNA 2: GGUACCUGGUUGGGGGAGGGGGGCGUGCACUGCCA
modifications: 5' phosphate on guide
B8: miR-34a guide / SIRT1 target (dsRNA)
RNA 1: UGGCAGUGUCUUAGCUGGUUGU
RNA 2: ACACCCAGCUAGGACCAUUACUGCCA
modifications: 5' phosphate on guide
B9: miR-34a guide / NOTCH2 target (dsRNA)
RNA 1: UGGCAGUGUCUUAGCUGGUUGU
RNA 2: UCAGUGAUGAGGAGGACAACACUGCCU
modifications: 5' phosphate on guide
B10: miR-34a guide / WNT1 target (dsRNA)
RNA 1: UGGCAGUGUCUUAGCUGGUUGU
RNA 2: GGAGACCCCUUGUUGCACUGCCC
modifications: 5' phosphate on guide
B11: miR-34a guide / BCL2 target (dsRNA)
RNA 1: UGGCAGUGUCUUAGCUGGUUGU
RNA 2: UCGAAUCAGCUAUUUACUGCCA
modifications: 5' phosphate on guide
B12: miR-34a guide / CDK6 target (dsRNA)
RNA 1: UGGCAGUGUCUUAGCUGGUUGU
RNA 2: UACUUUCUGCCACACACUGCCU
modifications: 5' phosphate on guide

Columns and labels:
Assay in all cases: EMSA
[1] = biological target: T1, Argonaute 2 (AGO2), loaded with miR-34a (Homo sapiens, UniProt Q9UKV8 1-859)
[2] = biological target: T1, Argonaute 2 (AGO2), loaded with miR-34a; remark: listed apart in the source
[3] = biological target: T1, Argonaute 2 (AGO2), loaded with miR-34a; remark: listed apart in the source
[4] = biological target: T1, Argonaute 2 (AGO2), loaded with miR-34a; remark: listed apart in the source
[5] = biological target: T1, Argonaute 2 (AGO2), loaded with miR-34a; remark: listed apart in the source

T1 sequence (Q9UKV8 whole entry): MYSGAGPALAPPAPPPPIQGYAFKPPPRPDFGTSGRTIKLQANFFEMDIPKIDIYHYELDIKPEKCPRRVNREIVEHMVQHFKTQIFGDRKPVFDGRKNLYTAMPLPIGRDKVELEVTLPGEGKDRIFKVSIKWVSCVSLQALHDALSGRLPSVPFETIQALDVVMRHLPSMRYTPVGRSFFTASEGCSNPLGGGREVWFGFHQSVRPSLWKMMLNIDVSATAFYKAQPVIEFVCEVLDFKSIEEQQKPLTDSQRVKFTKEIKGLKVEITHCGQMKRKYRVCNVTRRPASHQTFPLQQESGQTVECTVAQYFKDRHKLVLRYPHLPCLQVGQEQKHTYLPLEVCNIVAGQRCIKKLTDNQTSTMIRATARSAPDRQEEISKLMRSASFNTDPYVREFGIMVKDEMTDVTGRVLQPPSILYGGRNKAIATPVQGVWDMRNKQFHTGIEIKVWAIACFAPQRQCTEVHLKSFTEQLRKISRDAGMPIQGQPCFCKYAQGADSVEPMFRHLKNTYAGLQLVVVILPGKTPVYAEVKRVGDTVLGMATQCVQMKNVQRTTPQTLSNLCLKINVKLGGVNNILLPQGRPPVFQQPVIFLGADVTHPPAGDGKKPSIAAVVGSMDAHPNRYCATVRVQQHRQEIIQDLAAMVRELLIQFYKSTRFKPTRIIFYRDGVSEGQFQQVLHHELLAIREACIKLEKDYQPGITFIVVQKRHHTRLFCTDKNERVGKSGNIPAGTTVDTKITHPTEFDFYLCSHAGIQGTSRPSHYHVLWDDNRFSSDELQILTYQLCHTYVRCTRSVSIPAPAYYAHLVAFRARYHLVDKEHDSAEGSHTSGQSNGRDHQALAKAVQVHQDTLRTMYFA

| Binder | Kd [2] | further results |
| --- | --- | --- |
| B1 | – | binding result [1]: binds |
| B2 | 69.2 ± 14.1 nM | – |
| B3 | 38.9 nM | – |
| B4 | 1.03 ± 0.46 nM | – |
| B5 | – | binding result [3]: binds |
| B6 | 14.5 ± 2.9 nM | – |
| B7 | 66.1 ± 11.2 nM | – |
| B8 | – | Kd [4]: 2.68 ± 0.3 nM |
| B9 | – | Kd [5]: 496 ± 129 nM |
| B10 | – | binding result [1]: binds |
| B11 | 8.92 nM | – |
| B12 | 26.9 ± 1.4 nM | – |
